Results reported in patent US20210347908A1 (ELPISCIENCE SUZHOU BIOPHARMA, published 2021).
Positions count from the first letter of the chain named. Read-outs that look alike come from different tables or passages of the source.

Assays:
[1] = target: T1, 6×His tagged human SIRPα v1 ECD recombinant protein (human, UniProt P78324 31-373); assay: SPR (Biacore)
T1 construct: extracellular domain; bought; also called hSIRPα V1 (SPR antigen)

[2] = target: T2, Fc tagged human SIRPα v1 ECD recombinant protein (human, UniProt P78324 31-370); assay: ELISA
T2 construct: range 1-370; cloned range M1-R370 includes the signal peptide; also called hSIRPα V1; not shown: human IgG Fc region (hFc) of the pCPC vector
T2 sequence (P78324 31-370 limits assumed): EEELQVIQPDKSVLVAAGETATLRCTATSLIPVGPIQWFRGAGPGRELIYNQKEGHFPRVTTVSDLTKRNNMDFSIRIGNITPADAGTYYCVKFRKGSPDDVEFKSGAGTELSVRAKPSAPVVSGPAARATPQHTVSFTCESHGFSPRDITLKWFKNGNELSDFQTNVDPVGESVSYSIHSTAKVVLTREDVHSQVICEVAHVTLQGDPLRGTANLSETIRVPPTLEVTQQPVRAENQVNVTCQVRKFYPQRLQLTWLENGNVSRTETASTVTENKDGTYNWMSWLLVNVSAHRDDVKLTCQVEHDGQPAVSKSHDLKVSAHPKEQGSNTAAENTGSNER

[3] = target: T3, 6×His tagged human SIRPα v8 ECD recombinant protein (human); assay: ELISA
T3 construct: extracellular domain; bought; also called hSIRPα V8

[4] = target: T4, Fc tagged human SIRPβ ECD recombinant protein (human, UniProt O00241 30-371); assay: ELISA
T4 construct: range 1-371; cloned range includes the signal peptide; also called hSIRPβ; not shown: human IgG Fc region (hFc) of the pCPC vector
T4 sequence (O00241 30-371 limits assumed, form in doubt): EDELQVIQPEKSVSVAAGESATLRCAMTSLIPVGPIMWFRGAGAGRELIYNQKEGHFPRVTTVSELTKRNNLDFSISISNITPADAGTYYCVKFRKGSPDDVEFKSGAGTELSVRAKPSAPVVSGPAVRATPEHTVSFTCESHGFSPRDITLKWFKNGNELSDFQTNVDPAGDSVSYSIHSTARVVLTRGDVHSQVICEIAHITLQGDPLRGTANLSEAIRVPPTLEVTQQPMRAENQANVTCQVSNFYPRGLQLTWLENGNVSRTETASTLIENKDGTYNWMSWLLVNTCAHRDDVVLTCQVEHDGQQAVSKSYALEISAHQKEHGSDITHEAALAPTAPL

[5] = target: T5, Fc tagged human SIRPγ ECD recombinant protein (human, UniProt Q9P1W8 29-360); assay: ELISA
T5 construct: range 1-360; cloned range includes the signal peptide; also called hSIRPγ; not shown: human IgG Fc region (hFc) of the pCPC vector
T5 sequence (Q9P1W8 29-360 limits assumed, form in doubt): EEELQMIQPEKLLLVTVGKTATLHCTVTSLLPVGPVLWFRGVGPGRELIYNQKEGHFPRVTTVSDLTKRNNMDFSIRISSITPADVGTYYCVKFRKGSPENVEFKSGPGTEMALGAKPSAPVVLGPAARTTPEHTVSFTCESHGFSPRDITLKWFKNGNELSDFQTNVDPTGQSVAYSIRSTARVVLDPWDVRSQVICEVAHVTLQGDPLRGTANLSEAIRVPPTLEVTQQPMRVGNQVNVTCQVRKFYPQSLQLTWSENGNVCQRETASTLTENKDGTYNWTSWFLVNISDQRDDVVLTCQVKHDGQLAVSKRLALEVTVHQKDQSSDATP

[6] = target: T6, Fc tagged human SIRPα v2 ECD recombinant protein (human); assay: ELISA
T6 construct: range 1-369; cloned range M1-R369 includes the signal peptide; also called hSIRPα V2

[7] = target: T7, biotin labeled soluble human SIRPα v1 ECD recombinant protein (human, UniProt P78324 31-373, biotin labeled); assay: competitive ELISA, hSIRPα/CD47 blocking
T7 construct: extracellular domain
T7 sequence (P78324 31-373): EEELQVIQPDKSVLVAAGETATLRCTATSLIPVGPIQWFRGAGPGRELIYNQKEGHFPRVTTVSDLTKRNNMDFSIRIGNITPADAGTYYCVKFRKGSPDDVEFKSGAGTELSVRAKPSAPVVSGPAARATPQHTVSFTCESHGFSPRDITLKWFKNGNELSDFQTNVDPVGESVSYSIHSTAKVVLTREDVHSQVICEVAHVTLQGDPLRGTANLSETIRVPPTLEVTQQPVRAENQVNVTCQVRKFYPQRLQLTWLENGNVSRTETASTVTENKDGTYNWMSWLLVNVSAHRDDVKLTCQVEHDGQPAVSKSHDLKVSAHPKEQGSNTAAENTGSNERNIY

[8] = target: T8, full length cyno SIRPα stably expressed on CHOK1 cells (cynomolgus monkey, UniProt A0A2K5VYQ9 31-507); assay: FACS on CHOK1 cells
T8 construct: whole, on cells; also called CHOK1-cyno SIRPα-2A2 cells; CHOK1-cyno SIRPα
T8 sequence: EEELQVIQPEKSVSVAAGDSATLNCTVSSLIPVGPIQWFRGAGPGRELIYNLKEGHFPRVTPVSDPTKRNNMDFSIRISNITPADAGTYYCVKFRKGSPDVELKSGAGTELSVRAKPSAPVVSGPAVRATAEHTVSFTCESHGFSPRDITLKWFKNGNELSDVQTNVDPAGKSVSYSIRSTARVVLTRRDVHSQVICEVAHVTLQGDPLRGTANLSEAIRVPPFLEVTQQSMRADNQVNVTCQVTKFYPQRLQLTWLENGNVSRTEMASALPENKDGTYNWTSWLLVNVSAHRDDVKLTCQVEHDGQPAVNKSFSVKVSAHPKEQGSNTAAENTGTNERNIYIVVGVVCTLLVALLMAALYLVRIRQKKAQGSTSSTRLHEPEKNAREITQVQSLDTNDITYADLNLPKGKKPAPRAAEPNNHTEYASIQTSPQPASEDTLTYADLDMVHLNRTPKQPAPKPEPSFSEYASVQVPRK
Procedure: (§1) Species cross reactivity of the purified hybridoma antibodies against human, cyno and mouse SIRPα was determined by FACS assay using CHOK1-human SIRPα v1-1B4 cells, CHOK1-cyno SIRPα-2A2 cells, and CHOK1-C57BL/6 mouse SIRPα-2.22 cells, which stably expressing SIRPα protein. Briefly the antibodies were incubated with 2×10⁵ target cells at 4° C. for 1 hour. After washing, fluorescence labeled anti-mouse or anti-human IgG 2nd antibody (Life Technologies) was added and incubated at 4° C. for 1 hour. Geometric median fluorescence intensity was detected and EC₅₀ was calculated. In particular, it is noted, in contrast to the other antibodies tested in the same experiment, 060 cannot bind with cyno SIRPα and 035 has cross reactivity against C57BL/6 mouse SIRPα.

[9] = target: T9, full length C57BL/6 mouse SIRPα stably expressed on CHOK1 cells (mouse (C57BL/6), UniProt P97797 32-513); assay: FACS on CHOK1 cells
T9 construct: whole, on cells; also called CHOK1-C57BL/6 mouse SIRPα-2.22 cells
T9 sequence (looked up): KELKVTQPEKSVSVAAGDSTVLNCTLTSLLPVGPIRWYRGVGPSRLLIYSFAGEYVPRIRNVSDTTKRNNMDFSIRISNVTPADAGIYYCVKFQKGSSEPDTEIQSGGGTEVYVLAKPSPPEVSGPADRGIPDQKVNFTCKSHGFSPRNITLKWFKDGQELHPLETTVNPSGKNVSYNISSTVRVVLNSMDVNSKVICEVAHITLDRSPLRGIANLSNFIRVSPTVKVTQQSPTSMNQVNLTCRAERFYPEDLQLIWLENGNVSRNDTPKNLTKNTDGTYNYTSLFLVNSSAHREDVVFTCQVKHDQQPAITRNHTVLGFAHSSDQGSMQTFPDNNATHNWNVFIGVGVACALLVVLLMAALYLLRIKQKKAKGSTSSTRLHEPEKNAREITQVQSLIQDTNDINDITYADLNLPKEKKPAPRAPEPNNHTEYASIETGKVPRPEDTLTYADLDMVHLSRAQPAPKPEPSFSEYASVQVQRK
Procedure: as §1

[10] = target: T10, full length human SIRPα v1 stably expressed on CHOK1 cells (human, UniProt P78324 31-504); assay: FACS on CHOK1 cells
T10 construct: whole, on cells; also called CHOK1-human SIRPα v1-1B4 cells; CHOK1-human SIRPα v1
Procedure: as §1

[11] = target: T1, 6×His tagged human SIRPα v1 ECD …; assay: SPR (Biacore), antibody captured
Procedure: Anti-SIRPα chimeric antibodies were characterized for binding affinity against human SIRPα v1, human SIRPα v2 and C57BL/6 mouse SIRPα using Biacore (GE). Briefly the antibodies to be tested were captured to CM5 chip (GE) using Human Antibody Capture Kit (GE). The antigens of 6×His tagged human SIRPα v1, human SIRPα v2 and C57BL/6 mouse SIRPα ECD recombinant proteins were serially diluted for multiple doses and injected at 30 μl/min for 180 s. Buffer flow was maintained for dissociation of 400 s. 3 M MgCl₂ was used for chip regeneration. The association and dissociation curves were fit with 1:1 binding model, and the Ka/Kd/KD values for each antibody were calculated.

[12] = target: T11, 6×His tagged C57BL/6 mouse SIRPα ECD recombinant protein (mouse (C57BL/6), UniProt P97797 32-373); assay: ELISA on coated mouse SIRPα (C57BL/6) ECD [Continued) F]
T11 construct: extracellular domain; bought; also called mSIRPα (C57BL/6); mouse SIRPα (C57BL/6) ECD
T11 sequence: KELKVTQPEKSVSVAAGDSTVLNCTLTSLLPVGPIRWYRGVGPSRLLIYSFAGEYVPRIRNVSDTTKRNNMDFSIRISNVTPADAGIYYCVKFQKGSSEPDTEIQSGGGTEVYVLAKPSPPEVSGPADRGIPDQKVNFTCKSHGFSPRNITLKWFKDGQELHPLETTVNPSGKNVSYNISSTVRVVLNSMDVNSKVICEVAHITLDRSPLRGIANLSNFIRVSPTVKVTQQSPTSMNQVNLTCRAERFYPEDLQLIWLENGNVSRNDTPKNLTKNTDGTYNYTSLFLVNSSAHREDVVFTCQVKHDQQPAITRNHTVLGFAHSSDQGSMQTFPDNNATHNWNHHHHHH

[13] = target: T7, biotin labeled soluble human SIRPα v1 …; assay: competitive ELISA; competitor 032
Procedure: (§2) Competitive ELISA assay was used for epitope binning of 9 functional antibodies. Briefly excessive competitor antibody and biotin labeled soluble human SIRPα v1 ECD recombinant protein were co-incubated with ELISA microplate coated antibody. After washing, HRP-SA was added and incubated at 37° C. for 1 hour. Then, […] of TMB solution (Biotechnology) was added. After incubation for 15 minutes at room temperature, the reaction was stopped by the addition of […] of 1N HCl. OD 450 nm was read. Competition ratio was calculated. The antibodies that can compete each other for binding to SIRPα have the similar binding epitope.

[14] = target: T2, Fc tagged human SIRPα v1 ECD …; assay: ELISA; remark: listed apart in the source
Procedure: (§3) Binding specificity of the purified hybridoma antibodies against SIRP family members was detected by ELISA assay using recombinant proteins of Fc tagged human SIRPα v1 ECD, human SIRPα v2 ECD, human SIRPβ ECD and human SIRPγ ECD. Briefly the antibodies were incubated with ELISA microplate coated antigens at 37° C. for 1 hour. After washing, horseradish peroxidase (HRP) labeled anti-mouse or anti-human IgG 2nd Ab (Sigma) was added and incubated at 37° C. for 1 hour. Then, 100 μl/well of TMB solution (Biotechnology) was added. After incubation for 15 minutes at room temperature, the reaction was stopped by the addition of 50 μl of 1N HCl. OD 450 nm was read and EC₅₀ was calculated. Other than 060 and HEFLB, all of the antibodies as tested can bind with both human SIRPα v1 and SIRPα v2. 060 and HEFLB can bind with human SIRPα v1 but not v2. Other than 055, all of the antibodies as tested can bind with human SIRPβ. In comparison with other known anti-SIRPα antibodies, only 022, 035 and 050 can bind with human SIRPγ weakly.

[15] = target: T6, Fc tagged human SIRPα v2 ECD …; assay: ELISA; remark: listed apart in the source
Procedure: as §3

[16] = target: T7, biotin labeled soluble human SIRPα v1 …; assay: competitive ELISA; competitor 29-AM4-5
Procedure: as §2

[17] = target: T7, biotin labeled soluble human SIRPα v1 …; assay: competitive ELISA; competitor 002
Procedure: as §2

[18] = target: T7, biotin labeled soluble human SIRPα v1 …; assay: competitive ELISA; competitor 001
Procedure: as §2

[19] = target: T7, biotin labeled soluble human SIRPα v1 …; assay: competitive ELISA; competitor 050
Procedure: as §2

[20] = target: T7, biotin labeled soluble human SIRPα v1 …; assay: competitive ELISA; competitor 055
Procedure: as §2

[21] = target: T7, biotin labeled soluble human SIRPα v1 …; assay: competitive ELISA; competitor 035
Procedure: as §2

[22] = target: T7, biotin labeled soluble human SIRPα v1 …; assay: competitive ELISA; competitor KWAR23
Procedure: as §2

[23] = target: T7, biotin labeled soluble human SIRPα v1 …; assay: competitive ELISA; competitor 022
Procedure: as §2

[24] = target: T7, biotin labeled soluble human SIRPα v1 …; assay: competitive ELISA; competitor HEFLB
Procedure: as §2

[25] = target: T7, biotin labeled soluble human SIRPα v1 …; assay: competitive ELISA; competitor 060
Procedure: as §2

[26] = target: T7, biotin labeled soluble human SIRPα v1 …; assay: competitive ELISA; competitor 074
Procedure: as §2

T1 sequence (P78324 other isoform, or with tags, fused parts or gaps): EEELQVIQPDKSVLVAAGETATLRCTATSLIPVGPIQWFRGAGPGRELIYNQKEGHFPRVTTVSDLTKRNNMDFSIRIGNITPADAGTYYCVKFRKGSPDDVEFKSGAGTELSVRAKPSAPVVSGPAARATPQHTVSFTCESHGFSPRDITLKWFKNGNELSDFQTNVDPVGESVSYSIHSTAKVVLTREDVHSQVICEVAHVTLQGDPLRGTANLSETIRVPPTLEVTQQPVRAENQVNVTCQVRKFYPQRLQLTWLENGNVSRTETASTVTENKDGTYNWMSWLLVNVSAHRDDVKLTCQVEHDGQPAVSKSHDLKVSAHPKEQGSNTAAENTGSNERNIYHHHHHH

B1: humanized antibody hu035.02 (antibody, V domains shown)
VH: QIQLVQSGSELKKPGASVKVSCRARGYTLTDYAMNWVRQAPGQGLEWMGFINTYTGEPTYAQGFKGRFVFSLDTSVSTAYLQIGSLKAEDTAVYYCARTRGYYDFDGGAFDYWGQGTLVTVSS
VL: DIQMTQSPSSLSASVGDRVTITCRASQNVGTHLAWYQQKPGKAPKSLIYSASYRYIGVPSRFSGSGSGTDFTLTISSLQPEDFATYYCQQYNTYPLTFGQGTKLEIK
B1 showed a Kd [1] of 1.64 nM, an EC50 [2] of 0.16 nM and an EC50 [3] of 0.23 nM. The EC50 [4] was 0.2 nM, the EC50 [5] was 6.24 nM and the EC50 [6] was 0.16 nM. For the same binder, the IC50 [7] was 1.74 nM, the EC50 [8] was 0.29 nM and the “MFI at 2 ug/ml” value [9] was 549 MFI. It also gave an EC50 [10] of 0.97 nM, a Kd [11] of 1.64 nM and a koff [11] of 0.00017 s⁻¹. It also gave a kon [11] of 104000 M⁻¹ s⁻¹.

B2: humanized antibody hu035.03 (antibody, V domains shown)
VH: B1 VH
VL: B1 VL with A43S, S46A, Y49F
B2 showed a Kd [1] of 3.2 nM, an EC50 [2] of 0.13 nM and an EC50 [3] of 0.23 nM. It also gave an EC50 [4] of 0.17 nM, an EC50 [5] of 6.78 nM and an EC50 [6] of 0.11 nM. For the same binder, the IC50 [7] was 1.43 nM, the “EC50 (read off the curve)” value [12] was roughly 0.09 µg/mL and the EC50 [8] was 0.3 nM. For the same binder, the “MFI at 2 ug/ml” value [9] was 626 MFI, the EC50 [10] was 1.46 nM and the Kd [11] was 3.2 nM. For the same binder, the koff [11] was 0.000189 s⁻¹ and the kon [11] was 59200 M⁻¹ s⁻¹.

B3: Antibody 055 (hybridoma antibody) (antibody, V domains shown)
VH: EVKLVESEGGLVQPGDSMKLSCTASGFTFSDYFMTWIRQVPEKGLEWIANVNYDGRSTYYLDSLKSRFIISRDNANNILYLQMSSLKSEDTATYYCAREGSQTPLYAVDYWGQGTSVTVSS
VL: DIVMTQSQKFMSTTVGDRVNITCKASQNVGTAVAWYQQKPGQSPKLLIYLASNRYTGVPDRFTGSGSGTDFTLTVSDMRSEDLADYFCQQYSIYPFTFGSGTKLEIK
notes: mouse hybridoma antibody
In the case of B3, the “% Competition” value [13] is reported as -1%, the EC50 [14] is reported as 0.04 nM and the EC50 [15] is reported as 0.04 nM. The “% Competition” value [16] was 14%, the “% Competition” value [17] was -8% and the “% Competition” value [18] was -3%. The “% Competition” value [19] was 7%, the “% Competition” value [20] was 91% and the “% Competition” value [21] was 8%. The “% Competition” value [22] was 45%, the “MFI at 10 nM” value [8] was 4670 MFI and the binding result [9] was “no binding (tested: 100 nM)”. The EC50 [10] was 1.2 nM, the “% Competition” value [23] was 2% and the “% Competition” value [24] was -10%. For the same binder, the “% Competition” value [25] was 8% and the “% Competition” value [26] was 3%.
